Assay results: the RNAGym collection of RNA variant scans (doi:10.1073/pnas.2313332121)

B1: TPR t1 (parent)
chain: GACCAAUCUGCCCUCAGAGCUCGAGAACAUCUUCGGAUGCAGAGGAGGCAGGCUUCGGUGGCGCGAUAGCGCCAACGUCCUCAACCUCCAAUGCAUCCCACCACAUGAUGAUGCCUGAAGAGCCUUGGUUUUUUG

Variants of: B1
Experiment: polymerase ribozyme fitness, log enrichment relative to wild type (log ratio); higher = more active; in vitro selection for triplet polymerase activity
How it was run: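 The heterodimeric triplet polymerase ribozyme's subunits were each mutagenized into PCR-built libraries and transcribed. Every library was selected once, in triplicate, by annealing with a biotinylated primer, the partner subunit and triplets, incubating frozen at −7 °C, gel-excising extended constructs, capturing on streptavidin beads and running RT-PCR. Input and output libraries were Illumina-sequenced, with genotypes kept only at ≥10 input reads and ≥1 read per output. Fitness, from inverse-variance-weighted replicate averages, is the base-2 logarithm of genotype enrichment over wild-type enrichment.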

Variant	polymerase ribozyme fitness (log ratio)
GACCAAUCUGCCCUCAGAGCUCGAGAACAUCUUCGGAUGCAGAGGAGGCAGGCUUCGCUGGUGCGAUAGCGCCAACGUCCUCAACCUCCAAUGCAUCCCACCACAUGAUGAUGCCUGAAGAGCCUUGGUUUUAUG [G58C C62U U133A]	-0.0723
GACCAAUCUGCCCUCAGAGCUCGAGAACAUCUUCGGAUGCAGAGGAGGCAGGCUUCGGCGGCGCGAUAGCGCCAACGUCAACAACCUCCAAUGCAUCCCACCACAUGAUGAUGCCUGAAGAGCCUUGGUUUUUUG [U59C C80A U81A]	-2.03
GACCAAUCUGUCCUCAGAGAUCGAGAACAUCUUCGGAUGCAGAGGAGGCAGGCUUCGGUGUCGCGAUAGCGCCAACGUCCUCAACCUCCAAUGCAUCCCACCACAUGAUGAUGCCUGAAGAGCCUUGGUUUUGUG [C11U C20A G61U U133G]	-2.19
GACCAAUCUGACUUCAGAGCUCGAGAACAUCUUCGGAUGCAGAGGAGGCUGGCUUCGGUGGUGCGAUAGCGCCAACGUCCUCAACCUCCAAUGCAUCCCACCACAUGAUGAUGCCUGAAGAGCCUUGGUUUUUUG [C11A C13U A50U C62U]	-2.9
GACCAAUUUGCCCUCAGAGCUCGAGAACAUCUUCGGAUGCAGAGGAGGCAGCCUUCGGUGGCGCGAUAGCGCCAACGCCCUCAACCUCCAAUGCAUCCCACCACAUGAUCAUGCCUGAAGAGCCUUGGUUUUUUG [C8U G52C U78C G110C]	-5.87
GACCAAUCGGCCCUCAGAGCUCGAGAACAUCUUCGGAUGCAGAGGAGGCAGGCUUCGGUGGCGCGAUAGCGCCAACGUCUUCAACCUCCAAUGCAUCCCACCACACGAUGAUGCCUGAAGAGCCUUGGUUUUUUG [U9G C80U U106C]	0.49
GACCAAUCUGCCCUCAGAGCUCGAGAACAUCUUCGGAUGCAGAGGAGGCAGGCUUCGGUGGCGCGAUAGCGCCAACGUCCUCAACCUCCAAUGCAUCCCACCACAAGAUGAUGCCUGAAGAGCCUUGCUUUUUUG [U106A G128C]	-2.95
GAUCAAUCUGCCCUCAGAGCUCGAGAACAUCUUCGGAUGCAGAGGAGGCAGGCUUCGGUGGCGCGAUAGCGCCAACGUCCUCAACCUCAAAUGCAUCCCACCACAUGAUGAUGCCUGAAGAGCCUUGGUUUUUUG [C3U C89A]	-2.23
GACCAAUCUGCCCUCAGAGCUCGAGAACAUCUUCGGAUGCAGAGGAGGCAGGUUUCGGUGGCGCGAUAGCGCCAACGUCCUCAACCUCUAAUGCAUCCCACCACAUGAUGAUGCCUGAAGAGCCUUGGUUUUUUC [C53U C89U G135C]	-0.361
GACCAAACUGCCCUCAGAGCUUGAGAACAUCUUCGGAUACAGAUGAGGCAGGUUUGGGUGGCCCGAUAGCGCCAACGUCCUCAACCUCCAAUGCAUCCCACCACAUGAUGAUGCCUGAAGAGCAAUGGUUUUUUG [U7A C22U G39A G44U C53U C56G G63C C124A U125A]	-5.65
GACCAAUCUGCACUCAGAGCUCGAGAACAUCUUCGGAUGCAGAGGAGGCAGGCUUCGGUGGCGCGAUAGCGCCAACGACCUCAACCUCCAAUGCAUCCCACCACAUGAUGAUGCCUGAUGAGCCUUGGUUUUUUG [C12A U78A A119U]	-0.914
GACCAAUCUGCCCUCAGAGCUCGAGAACAUCUUCGGAUGCAGUGAAGGCAGGCUUCGGUGGCGCGAUAGCGCCAACGUCCUCAACCUCCAAUGCAACCCACCACAUGGUGAUGCCUGAAGAGGCUUGGUUUUUUG [A43U G45A U96A A108G C123G]	-4.02
GACCAAUCUGCCCUCAGAGCUCGAGGACAUCUUCGGAUGCAGAGGAGGCAGGCUUCGGUGGCGCGAUAGCGCCAACGUCCUCAGCCUCCAAUGAUUCCCACCACAUGAUGAUGCCUGAAGAGCCUUGGUUUUUUG [A26G A84G C94A A95U]	-4.63
GACCAAUCUGCCCUCAGAGCUCGAGAACAUCUUCGGAUGCAGAGGAGGCAGGCUUUGGUGGCGCGACAGCGCCAACGUCCUCAACCUCCAAUGCAUCCCACCACAUGAUGAUGCCUGAAGAGCCUUGGUUUUUUG [C56U U67C]	-4.67
GACCAAUCUGCCUUCAGAGCUCGAGAACAUCUUCGGAUGCAGAGGAGGCAGGCUUCAGUGGCGCGAUAGCGCCAACGUACUCAACCUCCAAUGCAUCCCACCACAUGAUGAUGCCUGAAGAGCCUUGGUUUUUUG [C13U G57A C79A]	-1.12
GACCAAUCUGCCCUCAGAGCUCGAGAACAUCUUCGGAUGCAGAGUAGGCAGGCUUCGGUGGCGCGAUAGCGGCAACGUCCUCAACCUCCAAUGCAUCCCACCACAUGAUGAUGACUGAAGAGCCUUGGUUUUUUG [G45U C72G C114A]	-2.66
GACCAAACUGCCCUCAGAGCUCGAGAACAUCUUCGGAUGCAGAGGAGGCAGGCUUCGGUGGCGCGGUAGCGCGAACGUCCUCAACCUCCAAUGCAUCCCACCACAUGAUGAUGCCUGAAGAGCAUUGGUUUUUUG [U7A A66G C73G C124A]	0.101
GACCAAUCUGCCUUCGGAGCUCGAGAACAUCUUCGGAUGCAGAGGAGGCUGGCUUCGGUGGCGCGAUAGCGCCAACGUCCUCAACCUCCGAUGCAUCCCACCACAUGAUGAUGCCUGAAGAGCCUUGGUUUUUUG [C13U A16G A50U A90G]	-0.51
GACCAAUCUGCCCUCAGAGCUCGAGAACGUCUUCGGAUGCAGAGGAGGCAGGCUUCGGUGACGCGAUAGCGCCAACGUCCUCAACCUCCAAUGCAUCCCACCACAUGAUGAUGCCUGAAGAGCCUUGGUUUUUUG [A29G G61A]	-0.852
GACCAAUGUGCCCUCAGAGCUCGAGAACAUCUUCGGAUGCAGAGGAGGCAGGCUUCGGUGGCGCGAUAGCGCCAACCUCCUCAACCUCCAAUGCAUCCCACCACAUGAUGAUGCCUGAAGAGCCUUGGUUUUUUG [C8G G77C]	0.232
GACCAAUCUGUCCUCAGAGCUCGAGAUCAUCGUCGGUUGCAGAGGAGGCAGGCUUCGGUGGAGCGAUAGCGCCAACGUCCUCAACCUCCAAUGCAUCCCACCACAUGAAGAUGCCUGAAGAGCCUUGGUUUUUUG [C11U A27U U32G A37U C62A U109A]	-5.82
